Laboratory results published in publication PMC7504066.

Columns and labels:
[1] = target: Plasmodium vivax PLP synthase domain (Pdx1) (Plasmodium vivax); test: SEC; each protein alone on a Superdex 200 26/60 column; peak fractions evaluated by PAGE
[2] = target: Plasmodium vivax PLP synthase domain (Pdx1) (Plasmodium vivax); test: native gel or EMSA; native PAGE of the purified proteins and of the SEC-purified Pdx complex
[3] = target: Plasmodium vivax PLP synthase domain (Pdx1) (Plasmodium vivax); test: negative-stain electron microscopy; Pdx1 alone, 25-30 µg mL^-1 in 20 mM Tris pH 8.0, 200 mM NaCl, 5 mM MTG, 2% uranyl acetate
[4] = target: Plasmodium vivax PLP synthase domain (Pdx1) (Plasmodium vivax); test: SAXS; batch SAXS at EMBL beamline P12 (PETRA III), 293 K; Pdx1 and SEC-purified Pdx complex (mixed 1:1, overnight) at 1, 2 and 5 mg mL^-1; ab initio (GASBOR, P6) and rigid body (SASREF) models, SAXSMoW mass
[5] = target: Plasmodium vivax PLP synthase domain (Pdx1) (Plasmodium vivax); test: dynamic light scattering; purified Pdx1 alone and SEC-purified Pdx complex in a quartz cuvette, Spectroscatter-301, 660 nm laser, 90° angle

Plasmodium vivax PLP synthase domain (Pdx1) (enzyme)
12: stoichiometry N [1] | stoichiometry N [2] | stoichiometry N [3] | stoichiometry N [4] | stoichiometry N [5]

Plasmodium vivax glutaminase domain (Pdx2) (enzyme)
12: stoichiometry N (Pdx2 per Pdx1 dodecamer (12:12)) [4]
